Series [1] concerns the target T1, papain (EC 3.4.22.2; from Sigma) (UniProt P00784 134-345).
T1 construct: Commercial enzyme
T1 sequence (looked up): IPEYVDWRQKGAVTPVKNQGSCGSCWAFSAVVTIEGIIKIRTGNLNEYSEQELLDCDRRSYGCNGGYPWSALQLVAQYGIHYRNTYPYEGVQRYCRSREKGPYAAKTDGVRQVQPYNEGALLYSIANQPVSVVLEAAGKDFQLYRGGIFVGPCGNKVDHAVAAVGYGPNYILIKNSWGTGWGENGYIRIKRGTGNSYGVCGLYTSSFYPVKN
The experiment in a line: titration of papain activity (Bz-Arg-pNA hydrolysis) with varying inhibitor concentrations; linear titration curves. From the text:
To test the function of CysE and m-CysE as protease inhibitors their effect on papain hydrolysis of casein was investigated according to the method of Example 10. […] The m-CysE mutant performed similarly (data not shown).
The methods used for active site titration of papain, titration of the molar enzyme inhibitory concentration in cystatin E preparations, and for determination of equilibrium constants for dissociation (Ki) of complexes between cystatin E and cysteine peptidases are described in detail in Hall et al., Biochem. J., 291:123-29 (1993) and Abrahamson, Methods Enzymol., 244:685-700 (1994), both of which are hereby incorporated herein by reference. The enzymes used for equilibrium assays were papain (EC 3.4.22.2; from Sigma, St Louis, Mo.) and cathepsin B (EC 3.4.22.1; from Calbiochem, La Jolla, Calif.). […] Steady state velocities were measured and Ki values were calculated according to Henderson, Biochem J., 127:321-333 (1972), incorporated herein by reference. Corrections for substrate competition were made using Km values of 150=B5M for cathepsins B (Barrett and Kirschke, Methods Enzymol., 80:535-561 (1981) and 60=B5M for papain (Hall et al., Biochem. J., 291:123-29 (1992)), both of which are hereby incorporated herein by reference.

In series [2] the target is T2, recombinant human cystatin E (mature CysE secreted from baculovirus-infected Sf9 cells).
T2 chain: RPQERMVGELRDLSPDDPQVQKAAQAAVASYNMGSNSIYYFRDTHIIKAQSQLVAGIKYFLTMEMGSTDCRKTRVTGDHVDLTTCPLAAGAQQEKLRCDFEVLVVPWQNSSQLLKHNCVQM

Series [3] has as its target T3, m-CysE (mutant CysE: amino acids 29-143 of SEQ ID NO: 2 plus a 27 amino acid C-terminal fusion product encoded by the pA2 vector).
T3 chain: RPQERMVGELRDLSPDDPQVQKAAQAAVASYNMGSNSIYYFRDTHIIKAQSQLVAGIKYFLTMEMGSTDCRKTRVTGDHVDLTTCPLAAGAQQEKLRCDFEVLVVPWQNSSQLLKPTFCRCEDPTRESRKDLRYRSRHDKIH

A value given as a limit tells only on which side of the number the result lay.

B1: recombinant human cystatin E (mature CysE secreted from baculovirus-infected Sf9 cells) (other)
chain: RPQERMVGELRDLSPDDPQVQKAAQAAVASYNMGSNSIYYFRDTHIIKAQSQLVAGIKYFLTMEMGSTDCRKTRVTGDHVDLTTCPLAAGAQQEKLRCDFEVLVVPWQNSSQLLKHNCVQM
modifications: partly N-glycosylated (protein band doublet, a glycosylated and an unglycosylated form)
notes: Full-length cDNA was expressed in Sf9 cells; also called recombinant CysE
By Ki is commonly meant a dissociation constant, usually derived from enzyme kinetics or from competition with a known ligand. Higher therefore signals weaker binding. As for B1, in series [1], the Ki was under 10 nM.

B2: papain (EC 3.4.22.2; from Sigma) (protein)
chain: IPEYVDWRQKGAVTPVKNQGSCGSCWAFSAVVTIEGIIKIRTGNLNEYSEQELLDCDRRSYGCNGGYPWSALQLVAQYGIHYRNTYPYEGVQRYCRSREKGPYAAKTDGVRQVQPYNEGALLYSIANQPVSVVLEAAGKDFQLYRGGIFVGPCGNKVDHAVAAVGYGPNYILIKNSWGTGWGENGYIRIKRGTGNSYGVCGLYTSSFYPVKN
In the case of B2, in series [2], the “papain hydrolysis of Bz-Arg-pNA in 10 minute assays” value is “At mM concentrations, the recombinant CysE completely inhibited papain hydrolysis of Bz-Arg-pNA in 10 minute assays”. In addition, the “papain hydrolysis of casein” value in series [2] is “Both CysE and m-CysE showed a dose- and time-dependent inhibition of papain activity (data not shown)”; in series [3], “Both CysE and m-CysE showed a dose- and time-dependent inhibition of papain activity (data not shown)”.

The record behind these values is patent US20020052476A1 (Human Genome Sciences, published 2002).
